We go through one molecule from patent US20220098252, “INHIBITOR OF DUX4 AND USES THEREOF” (OSPEDALE SAN RAFFAELE S.R.L., published 2022).

One series concerns the target T1, MATR3 fragment 1-287 (Homo sapiens, UniProt P43243 SEQ:1-287).
T1 sequence: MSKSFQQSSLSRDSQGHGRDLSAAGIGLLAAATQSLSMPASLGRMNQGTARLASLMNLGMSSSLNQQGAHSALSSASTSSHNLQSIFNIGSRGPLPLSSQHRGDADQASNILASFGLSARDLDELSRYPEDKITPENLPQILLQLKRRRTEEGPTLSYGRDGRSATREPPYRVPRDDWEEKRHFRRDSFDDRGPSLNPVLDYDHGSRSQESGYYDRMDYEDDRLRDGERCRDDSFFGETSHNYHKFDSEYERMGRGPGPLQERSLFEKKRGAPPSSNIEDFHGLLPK
As to the kind of experiment: EMSA; MATR3 1-287 alone unable to bind DNA; lacks nucleic acid binding domains. The following applies: tags: GST (pGEX2tk). How it is done:
(§1) Twenty femtomoles of probes were incubated with 15 pmol of in vitro purified 6xHis DUX4 dbd and/or GST-MATR3 1-287 proteins in the presence of 1 μg of poly(dI:dC) and 5 μg of salmon sperm DNA in a buffer containing 10 mM Tris, pH 7.5, 0.1 mM EDTA, 1 mM DTT, 100 mM KCl, 3 mM MgCl2, 12% glycerol.
(§2) After 2 h incubation at RT, DNA-protein complexes were separated by electrophoresis in 8% (w/v) acrylamide gels formed in 0.5×TBE (Sigma-Aldrich) and run in the same buffer at 5 mA at 4° C. Then, the gels were transferred on a Biodyne nylon membrane (Thermo Scientific) at 380 mA for 45 min at 4° C. The membrane was crosslinked at 120 mJ/cm2 with an UV-Stratalinker and the biotin-labelled DNA was detected by chemiluminescence using the LightShift Chemiluminescent EMSA Kit (Thermo Scientific) following the manufacturer's protocol.
In general terms: Mobility shift assays separate free from complexed probe on a gel.

For series [1], the target named is DUX4 DNA-binding domain (dbd) (Homo sapiens, UniProt Q6RFH8 SEQ:1-150). Briefly: EMSA; binding inhibited by recombinant MATR3 1-287. Particulars: tags: 6xHis-GB1 (pET-GB1). The method, then: as §1, §2
Sequence of DUX4 DNA-binding domain (dbd) (Q6RFH8 1-150): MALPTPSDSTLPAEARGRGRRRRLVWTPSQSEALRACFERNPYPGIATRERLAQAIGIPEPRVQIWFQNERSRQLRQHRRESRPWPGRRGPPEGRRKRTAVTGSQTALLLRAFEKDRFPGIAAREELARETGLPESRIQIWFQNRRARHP

B1: FRG1 Peak 1 EMSA probe (dsDNA)
DNA 1: AATTGTAGCTATAATTCAATCATCTAAATTG
DNA 2: CAATTTAGATGATTGAATTATAGCTACAATT
Regarding B1, the binding result was “no binding” with MATR3 fragment 1-287 and “binds” in series [1].
